# Experimental data: patent publication US20200109194A1 (BLUEFIN BIOMEDICINE, published 2020)
# T1: human TMEFF1 extracellular domain recombinant protein (plasmid BBP377, S40-V330, C-terminal 8xHis) (human, UniProt Q8IYR6 40-330)
# T1 construct: Secreted from CHO cells with a non-native signal peptide (not part of the mature protein); also called hTMEFF1 ECD; hTMEFF1-ECD
# T1 sequence: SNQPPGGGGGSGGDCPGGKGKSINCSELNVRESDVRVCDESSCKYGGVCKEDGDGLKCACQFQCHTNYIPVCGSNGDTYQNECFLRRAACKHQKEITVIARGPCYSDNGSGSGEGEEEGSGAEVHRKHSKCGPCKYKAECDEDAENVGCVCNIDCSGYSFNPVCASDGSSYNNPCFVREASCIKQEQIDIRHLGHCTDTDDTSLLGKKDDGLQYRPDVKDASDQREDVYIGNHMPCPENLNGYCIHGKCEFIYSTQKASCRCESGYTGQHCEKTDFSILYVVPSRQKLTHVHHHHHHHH
# Target: T1, human TMEFF1 extracellular domain …
# Experiment: BLI (Octet Red), antibody on Protein A biosensor, recombinant hTMEFF1 ECD as analyte
# Procedure: (§1) The affinity of antibodies to various recombinant TMEFF1 protein was determined on an Octet Red™ instrument. After loading reagents into a 96-well plate, the Octet Red™ with Protein A-conjugated biosensors was programmed as follows: 30 seconds for baseline #1; 120 seconds to immobilize the antibody; 30 seconds for baseline #2; 300 seconds for association of antibody to recombinant TMEFF1; and 300-600 seconds for dissociation of recombinant TMEFF1 from the antibody.
# Affinity of thirteen antibodies was calculated using hTMEFF1 ECD recombinant protein by Octet™.
row,Binder,Kd [nM]
1,"27G5_56A2 (antibody, V domains shown) VH: QVQLQESGPGLVKPSETLSLTCAVSDYSISSGYYWGWIRQPPGKGLEWIGSIYHSGSTYYNPSLKSRVTISVDMSKNQFSLKLSSVTAADTAVYYCARDRDSVSWNGGRDYYYYGMDVWGQGTTVTVSS VL: not shown",69
2,"34E1_56A4 (antibody, human IgG1, V domains shown) VH: QVQLVESGGGVVQPGRSLRLSCAASGLTFSRYAMHWVRQAPGKGLEWVAVIWYDGSNKYYADSVKGRFTISRDTSKNTLYLQMNSLRAEDTAVYYCAREGLLWFGGMDVWGQGTTVTVSS VL: DIVLTQSPLSLPVTPGEPASISCRSSQSLLHSNGYNYLHWYLQKPGQSPQLLIYLGSNRASGVPDRFSGSGSGTDFTLKISRVEAEDVGLYYCMQALQTPYTFGQGTKLEIK",98
3,"24F10 (antibody, V domains shown) VH: QVQLVESGGGVVQPGRSLRLSCAASGFTFSSYGMHWVRQAPGKGLEWVAVIWYDGSDKYYTDSVKGRFTISRDNSKNTLYLQMNSLRAEDTAVYYCARESMVRGIVITFFDYWGQGTLVTVSS VL: EIVMTQSPATLSVSPGERATLSCRASQSVSSNLAWYQQKPGQAPRLLIYGASTRATGIPARFSGSGSGTEFTLTISSLQSEDFAVYSCQHYNNWPPTFGGGTKVEIK",50
4,"43B2_56A6 (antibody, human IgG1, V domains shown) VH: EVQLLESGGGLVQPGGSLRLSCAASGFTFSSYAMSWVRQAPGKGLEWVSTISGSGDSTYYADSVKGRFTISRDNSKNTLYLQMNSLRAEDTAIYYCAKFGVRGVIITNWFDPWGQGTLVTVSS VL: not shown",39
5,"50B4_56B2 (antibody, human IgG1, V domains shown) VH: EVQLLESGGGLVQPGGSLRLSCAASGFTFSSYAMSWVRQAPGKGLEWVSTISGSGDSTYYADSVKGRFTISRDNSKNTLYLQMNSLRVEDTAIYYCAKFGVRGVIITNWFDPWGQGTLVTVSS VL: EIVMTQSPATLSVSPGERATLSCRASQSVSSNLAWYQQKPGQVPRLLIYGASTRATGIPARFSGSGSGTEFTLTISSLQSEDFAVYYCQQYNNWPLTFGGGTKVEIK",52

# Target: T2, Macaca fascicularis TMEFF1 extracellular domain recombinant protein (plasmid BBP480, S40-V330, C-terminal … (Macaca fascicularis))
# T2 construct: range 40-330; also called cyTMEFF1 ECD; monkey TMEFF1 ectodomain
# Experiment: BLI (Octet Red), antibody on Protein A biosensor, recombinant cyTMEFF1 ECD as analyte
# Procedure: as §1
# Affinity of 7 antibodies was calculated using cyTMEFF1 ECD recombinant protein by Octet™.
row,Binder,Kd [nM]
1,"24F10 (antibody, V domains shown) VH: QVQLVESGGGVVQPGRSLRLSCAASGFTFSSYGMHWVRQAPGKGLEWVAVIWYDGSDKYYTDSVKGRFTISRDNSKNTLYLQMNSLRAEDTAVYYCARESMVRGIVITFFDYWGQGTLVTVSS VL: EIVMTQSPATLSVSPGERATLSCRASQSVSSNLAWYQQKPGQAPRLLIYGASTRATGIPARFSGSGSGTEFTLTISSLQSEDFAVYSCQHYNNWPPTFGGGTKVEIK",65

# Target: T1, human TMEFF1 extracellular domain …
# Experiment: BLI (Octet Red), His-tagged TMEFF1 ECD and deletion mutants on anti-Penta-His biosensors, unpurified recombinant antibody
# Procedure: TMEFF1 recombinant proteins expressing 3 different deletion mutants, AFS1 (AFollistatin Domain 1), AFS2 (AFollistatin Domain 2) or AFS1&FS2 were used to identify binding domains among different antibodes using an Octet Red instrument with Anti-Penta-His (HIS 1K) biosensors. […] 100 ngs of purified TMEFF1 ECD was run along with unpurified supernatant of transfected CHO cells with the different deletion mutants. HIS 1K biosensors were loaded by submerging the biosensors into wells containing 10 ug/ml of full length TMEFF1 or one of 3 different deletion mutants (AFS1, AFS2 or AFS1&FS2) for 60 seconds. Following the loading step, the biosensors were then dipped for 30 seconds in PBS before immersion for 30 seconds in 200 ul of unpurified recombinant antibodies for 30 seconds. The biosensors were then dipped briefly (30 seconds) in PBS to observe any dissociation. […] Differential binding to the deletion mutants allowed for determination of binding sites on TMEFF1 recombinant protein. For cases where the antibody bound all 3 recombinant proteins, the binding is outside of the deleted domains.
# 26 of the identified antibodies were checked for epitope domain binding by Octet™ using the hTMEFF1-ECD recombinant deletion mutants (see Table 7, below).
row,Binder,binding result
1,"37G7 (antibody, human IgG1, V domains shown) VH: QVQLVESGGGVVQPGRSLRLSCAASGFTFTSYGMHWVRQAPGKGLEWVAVVWYEGSSKFYVDSVKGRFIISRDNSKNTLYLQMNSLRAEDTAVYYCARAYCGGDCYPFDYWGQGTLVTVSS VL: DIQMTQSPSSLSASVGDRVTITCRASQGISNYLAWYQQKPGKVPKLLIYAASTLQSGVPSRFSGSGSGTDFTLTISSLQPEDVATYYCQKYNSAPWTFGQGTKVEIK",binds
2,"M17 (antibody, human IgG1, V domains shown) VH: QVQLVESGGGVVQPGRSLRLSCAASGFTFRSYGMHWVRQAPGKGLEWVALIWYDGGDQYYADSVKGRFTISRDSSKSTLYLQMNSLRAEDTAVYYCARAQCGDDCYPFDYWGQGTLVTVSS VL: DIQMTQSPSSLSASVGDRVTITCRASQGIYNYLAWYQQKPGKVPKLLIYAASTLQSGVPSRFSGSGSGTDFTLTISSLQPEDVATYYCQKYNSDPWTFGQGTKLEIK",binds
3,"29C4 (antibody, human IgG1, V domains shown) VH: QVQLVESGGGVVQPGRSLRLSCAASGFTFSNYGMHWVRQAPGKGLEWVAVIWYDGGPKFYADSVKGRFTISRDNSKNTLYLQMNSLRAEDTAVYYCARSYCGGDCYPFDYWGQGDLVTVSS VL: DIQMTQSPSSLSASVGDRVTITCRASQGISNYLAWYQQKPGKVPKLLIYAASTLQSGVPSRFSGSGSGTDFTLTISSLQPEDVATYYCQKYYSAPWTFGQGTKVEIK",binds
4,"35B1 (antibody, human IgG1, V domains shown) VH: QVQLVESGGGVVQPGRSLRLSCAASGFTFTTYGMHWVRQAPGKGLEWVAVVWFEGNSKFYIDSVKGRFIISRDNSKNTLFLQMNSLRAEDTAVYYCARANCGADCYPFDYWGQGTLVTVSS VL: DIQMTQSPSSLSASVGDRVTITCRASQGISNYLAWYQQKPGKVPKLLIYAASTLQSGVPSRFSGSGSGTDFSLTISSLRPEDVATYYCQKYNSAPWTFGQGTKVEIK",binds
5,"6C11 (antibody, human IgG1, V domains shown) VH: QVQLQQSGPGLVKPSQTLSLTCAISGDSVSSNSAAWNWIRQSPSRGLEWLGRTYYRSKWYNDYPVSVKSRITINPDTSKNQVSLQLNPVTPEDTAVYYCTREQGYSSSRYYYYYGMDVWGQGTTVTVSS VL: not shown",binds
6,"10C10 (antibody, human IgG1, V domains shown) VH: QVQLVESGGGVVQPGRSLRLSCATSGFTFSIYGMHWVRQAPGKGLEWVAIIWYDGNKKYYADSVKGRFTISRDNSKNTLYLQMNSLRAEDTAVYYCARDPYTSSLDYWGQGTLVTVSS VL: DIQLTQSPSFLSASVGDRVTITCRASQGISSYLAWYQQKPGKAPKLLIYAASTLQSGVPSRFSGSGSGTEFTLTISSLQPEDFATYYCQQLNSYPLTFGGGTKLEIK",binds
7,"M33F (antibody, human IgG1, V domains shown) VH: QVQLQESGPGLVKPSETLSLTCAVSGYSISSGYFWGWIRQPPGKKLEWIGSIYHSGSTYYNPSLKSRVTMSVDTSKNQFSLKLSSVTAADTAVYYCAREGDCSGGICYWYFDLWGRGTLVTVSS VL: DIQMTQSPSSLSASVGDRVTITCRASQGISNYLAWYQQKPGKVPKLLIYAASTLQSGVPSRFSGSGSGTEVTLTISSLQSEDFAVYYCQQYNKWPLTFGGGTKLEIK",binds
8,"18C2 (antibody, human IgG1, V domains shown) VH: QVQLVESGGGVVQPGRSLRLSCAASGFTFSIYGMHWVRQAPGMGLEWVAIIRYDGSNKYYADSVKGRFTISRDNSKNTLYLRMNSLRAEDTAVYYCARDPFTSSLDYWGQGTLVTVSS VL: DIQLTQSPSFLSASVGDRVTITCRASQGISSYLAWYQQKPGKAPKLLIYAASTLQSGVPSRFSGSGSGTEFTLTISSLQPEDFATYYCQQLNSYPLTFGGGTKLEIK",binds
9,"19D9 (antibody, human IgG1, V domains shown) VH: QVQLVESGGGVVQPGRSLRLSCAASGFTFSIYGMHWVRQAPGKGLEWVANIWYDGSKKYYADSVKGRFTISRDNSKNTLYLQMNSLRAEDTSVYYCARDPYTSSLDYWGQGTLVTVSS VL: DIQLTQSPSFLSASVGDRVTITCRASQGISSYLAWYQQKPGKAPKLLIYTASTLQSGVPSRFSGSGSGTEFTLTISSLQPEDFATYYCQQLNSYPLTFGGGTKLEIK",binds
10,"M1H1 (antibody, human IgG1, V domains shown) VH: QVQLQESGPGLVKPSETLSLTCAVSGYSISSGYFWGWIRQPPGKKLEWIGSIYHSGSTYYNPSLKSRVTMSVDTSKNQFSLKLSSVTAADTAVYYCAREGDCSGGICYWYFDLWGRGTLVTVSS VL: DIQMTQSPSSLSASVGDRVTITCRASQGISNYLAWYQQKPGKVPKLLIYAASTLQSGVPSRFSGSGSGTDFTLTISSLQPEDFAVYYCQQYNKWPLTFGGGTKLEIK",binds
11,"7F12 (antibody, human IgG1, V domains shown) VH: QVQLVESGGGVVQPGRSLRLSCAASGFTFSIYGMHWVRQAPGKGLEWVAIIWYDGSDKYYADSVKGRFTISRDNSKNTLYLQMNSLRAEDTAVYYCARDPYTTSLDYWGQGTLVTVSS VL: not shown",binds
12,"11F9 (antibody, human IgG1, V domains shown) VH: EVQLVESGGGLVKPGGSLRLSCAASGFTFSYAWMSWVRQAPGKGLEWVGRIKSKTDGGTTDYAAPVKGRFTISRDDSKNTLYLQLNSLKIEDTAVYYCTTGRIAAAGFDYWAQGTLVTVSS VL: DAVVTQESALTTSPGETVTLTCRSSTGTVTTSNYANWVQEKPDHLFTGLIAGTNNRAPGVPARFSGSLIGDKAVLTITGAQTEDEAIYFCALWYSNHWVFGGGTKLTVLG",binds
13,"3H9 (antibody, human IgG1, V domains shown) VH: EVQLVESGGGLVKPGGSLRLSCAASGFVFSYAWMNWVRQAPGKGLEWVGRIKSKTEGGTTDNAAPVKGRFTISREDSKNTLYLQLNSLKIEDTAVYYCTTGRIAAAGFDYWGQGTLVTVSS VL: DAVVTQESALTTSPGETVTLTCRSSTGTVTTSNYANWVQEKPDHLFTGLIAGTNNRAPGVPARFSGSLIGDKAALTITGAQTEDEAIYFCALWYSNHWVFGGGTKLTVLG",binds
